Reference: patent US20040038869A1 (published 2004)

Target: Human factor D (human, UniProt P00746 26-253)
Assay: cell-based or functional assay

Sequence of Human factor D (P00746 26-253 limits assumed): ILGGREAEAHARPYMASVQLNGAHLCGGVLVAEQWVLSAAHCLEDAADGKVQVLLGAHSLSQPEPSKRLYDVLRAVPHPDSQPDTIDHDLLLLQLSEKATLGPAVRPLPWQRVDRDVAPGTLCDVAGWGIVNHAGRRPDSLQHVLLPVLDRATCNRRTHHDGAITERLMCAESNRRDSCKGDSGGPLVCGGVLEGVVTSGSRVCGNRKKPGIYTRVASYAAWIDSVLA

B1: Recombinant polypeptide from Example 6 (Placobdella papillifera alternative complement pathway inhibitor, mature polypeptide of SEQ ID NO: 16) (other)
chain: VEFQDCKKSSDCETLELRCNKNTSKCECRNQVCPRACPDGKYKLDEYGCKRCLCQGCNEAQCRKLCWYGFTTDENGCESYCKCNTKETACKNVLCSDSYQCDPESGNCVAVIPGKEHDYYSYNDDDDEDK
modifications: No modification is reported for the recombinant product. paragraph 50 mentions only in general a possible N-glycosylation at Asn22 and sulphation or phosphation of Tyr119, Tyr120 and Tyr122. Disulphide bonds between cysteines are likely but not mapped.
IC50 of inhibition of CVF-induced C3a generation in human serum (C3a ELISA): 0.138 µg/mL
